Patent publication US20220073630A1 (Hoffmann-La Roche, published 2022)
Residue numbers refer to the chain shown, from its start.

B1: m38-pMHC-I-anti-FAP-IgG (other)
heavy 1: SSPPMFRVGCGGSGGGGSGGGGSIQKTPQIQVYSRHPPENGKPNILNCYVTQFHPPHIEIQMLKNGKKIPKVEMSDMSFSKDWSFYILAHTEFTPTETDTYACRVKHASMAEPKTVYWDRDMGGGGSGGGGSGGGGSGGGGSGPHSLRYFVTAVSRPGLGEPRYMEVGYVDDTEFVRFDSDAENPRYEPRARWMEQEGPEYWERETQKAKGNEQSFRVDLRTLLGCYNQSKGGSHTIQVISGCEVGSDGRLLRGYQQYAYDGCDYIALNEDLKTWTAADMAALITKHKWEQAGEAERLRAYLEGTCVEWLRRYLKNGNATLLRTDSPKAHVTHHSRPEDKVTLRCWALGFYPADITLTWQLNGEELIQDMELVETRPAGDGTFQKWASVVVPLGKEQYYTCHVYHQGLPEPLTLRWGSEVQLLESGGGLVQPGGSLRLSCAASGFTFSSHAMSWVRQAPGKGLEWVSAIWASGEQYYADSVKGRFTISRDNSKNTLYLQMNSLRAEDTAVYYCAKGWLGNFDYWGQGTLVTVSSAKTTAPSVYPLAPVCGGTTGSSVTLGCLVKGYFPEPVTLTWNSGSLSSGVHTFPALLQSGLYTLSSSVTVTSNTWPSQTITCNVAHPASSTKVDKKIEPRVPITQNPCPPLKECPPCAAPDAAGGPSVFIFPPKIKDVLMISLSPMVTCVVVDVSEDAPDVQISWFVNNVEVHTAQTQTHREDYNSTLRVVSALPIQHQDWMSGKEFKCKVNNRALGSPIEKTISKPRGPVRAPQVCVLPPPAEEMTKKEFSLSCAITGFLPAEIAVDWTSNGRTEQNYKNTATVLDSDGSYFMVSKLRVQKSTWERGSLFACSVVHEGLHNHLTTKTISRSLGK
heavy 2: EVQLLESGGGLVQPGGSLRLSCAASGFTFSSHAMSWVRQAPGKGLEWVSAIWASGEQYYADSVKGRFTISRDNSKNTLYLQMNSLRAEDTAVYYCAKGWLGNFDYWGQGTLVTVSSAKTTAPSVYPLAPVCGGTTGSSVTLGCLVKGYFPEPVTLTWNSGSLSSGVHTFPALLQSGLYTLSSSVTVTSNTWPSQTITCNVAHPASSTKVDKKIEPRVPITQNPCPPLKECPPCAAPDAAGGPSVFIFPPKIKDVLMISLSPMVTCVVVDVSEDAPDVQISWFVNNVEVHTAQTQTHREDYNSTLRVVSALPIQHQDWMSGKEFKCKVNNRALGSPIEKTISKPRGPVRAPQVYVLPPCAEEMTKKEFSLWCMITGFLPAEIAVDWTSNGRTEQNYKNTATVLDSDGSYFMYSKLRVQKSTWERGSLFACSVVHEGLHNRFTTKTISRSLGK
light: EIVLTQSPGTLSLSPGERATLSCRASQSVSRSYLAWYQQKPGQAPRLLIIGASTRATGIPDRFSGSGSGTDFTLTISRLEPEDFAVYYCQQGQVIPPTFGQGTKVEIKRADAAPTVSIFPPSSEQLTSGGASVVCFLNNFYPKDINVKWKIDGSERQNGVLNSWTDQDSKDSTYSMSSTLTLTKDEYERHNSYTCEATHKTSTSPIVKSFNRNEC
notes: also called mCMV m38-pMHC-I-anti-FAP-IgG; pMHC-I-IgG
B2: IE3-pMHC-I-anti-FAP-IgG (other)
heavy 1: B1 heavy 1 with S1R, S2A, P3L, P4E, M5Y, F6K, R7N, V8L
heavy 2: B1 heavy 2
light: B1 light
notes: Same build as m38-pMHC-I-anti-FAP-IgG, with the control peptide IE3; also called mCMV IE3-pMHC-I-anti-FAP-IgG; control fusion protein

Target: T1, murine fibroblast activation protein (FAP) (murine, UniProt P97321 1-761)
T1 construct: whole, on cells; also called mFAP; murine FAP
T1 sequence: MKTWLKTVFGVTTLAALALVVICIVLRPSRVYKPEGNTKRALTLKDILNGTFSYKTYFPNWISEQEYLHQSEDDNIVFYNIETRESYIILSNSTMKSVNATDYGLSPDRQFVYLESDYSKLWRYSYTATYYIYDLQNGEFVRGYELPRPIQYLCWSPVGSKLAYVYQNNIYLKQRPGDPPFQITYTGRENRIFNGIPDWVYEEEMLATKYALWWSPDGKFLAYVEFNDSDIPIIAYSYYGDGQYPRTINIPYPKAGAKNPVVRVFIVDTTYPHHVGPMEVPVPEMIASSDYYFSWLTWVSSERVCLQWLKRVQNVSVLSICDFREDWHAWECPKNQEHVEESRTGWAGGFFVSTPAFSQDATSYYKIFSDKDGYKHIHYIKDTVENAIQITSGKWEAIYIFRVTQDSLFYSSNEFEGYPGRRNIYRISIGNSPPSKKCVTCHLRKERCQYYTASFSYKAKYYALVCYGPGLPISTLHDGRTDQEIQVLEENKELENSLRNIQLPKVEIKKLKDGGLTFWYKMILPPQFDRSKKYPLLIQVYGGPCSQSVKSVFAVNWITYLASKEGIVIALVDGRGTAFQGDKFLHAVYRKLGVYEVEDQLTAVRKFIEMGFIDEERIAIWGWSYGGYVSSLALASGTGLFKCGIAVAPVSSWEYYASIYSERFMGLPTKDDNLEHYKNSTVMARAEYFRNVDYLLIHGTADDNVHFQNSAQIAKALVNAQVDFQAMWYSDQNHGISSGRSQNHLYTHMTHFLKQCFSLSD
Assay: flow cytometry on target cells (data not shown)

Row | Binder | binding result
1 | B1 | binds
2 | B2 | binds
